Laboratory results: patent US20230279121A1

Columns and labels:
[1] = target: Rhesus macaque EGFR (Rhesus macaque) (UniProt P55245); assay: SPR
human EGFR (human) = human EGFR (human) (UniProt P00533); assay: SPR
[2] = target: recombinant human EGFR-His (human) (UniProt P00533); assay: SPR, Biacore 8K, 37 C; protein captured on anti-hFc IgG chip, EGFR-His injected; N = 4

Kd [1]	koff [1]	kon [1]	Kd (human EGFR (human))	koff (human EGFR (human))	kon (human EGFR (human))	Kd [2]	koff [2]	kon [2]	Molecule
5.36 nM	0.00112 s⁻¹	209000 M⁻¹ s⁻¹	3.38 nM	0.00099 s⁻¹	293000 M⁻¹ s⁻¹	–	–	–	PANI-H_S62R-L_F87Y-L_D92R (scFv)
–	–	–	–	–	–	2.36 nM	0.000745 s⁻¹	316000 M⁻¹ s⁻¹	EGFR-Protein-4 (bispecific antibody, part only; not given: unrelated Fab, Fc and junctions, not shown: another chain or arm of the molecule; a dimerising Fc or GST) scFv: DIQMTQSPSSLSASVGDRVTITCQASQDISNYLNWYQQKPGKAPKLLIYDASNLETGVPSRFSGSGSGTDFTFTISSLQPEDIATYYCQHFRHLPLAFGCGTKVEIKGGGGSGGGGSGGGGSGGGGSQVQLQESGPGLVKPSETLSLTCTVSGGSVSSGDYYWTWIRQSPGKCLEWIGHIYYSGNTNYNPSLKSRLTISIDTSKTQFSLKLSSVTAADTAIYYCVRDRVTGAFDIWGQGTMVTVSS
